Experimental data reported in the DeepSol protein solubility set.

assay: soluble on expression in E. coli; label from the status in PepcDB or PDB records

| Sequence | soluble on expression in E. coli |
| --- | --- |
| MQQKLENIKFVITDVDGVLTDGQLHYDANGEAIKSFHVRDGLGIKMLMDADIQVAVLSGRDSPILRRRIADLGIKLFFLGKLEKETACFDLMKQAGVTAEQTAYIGDDSVDLPAFAACGTSFAVADAPIYVKNAVDHVLSTHGGKGAFREMSDMILQAQGKSSVFDTAQGFLKSVKSMGQLEHHHHHH | soluble |
| MGSDKIHHHHHHMRSTDRLLFIDFLLKFENKNGTVIPCCVDNFDCTFTHKGGKSMYEKERKELYNAHLLLEKYGLVAYTSGNVSVRIGDHVLIKPSGVPYTELKPEDFVVVDLEGNVIEGEKKPSVDTATHLYLYKHLDWAKSVIHTHSTFAMVWAILEKSIPVLCTAHADVFGEEIPLTEYAPVGSEAIGKAVVKVIGKSGAVLLRKHGVMIVGTSVDDAVKKAIFLEEVAKAAYFATLAGKPTPLPPDEVDHLYNQYHTKYGQK | not soluble |
| MSHTSNFTRNFHCRSSSNKRSESEKSPSFSKKRRRARALDPDEFIPPVEGPDVQKIDSETSRKCHSIKGFNVNKDGSVRRLEDNSKYEHNKSSRQKRSEAAPLENSEGKSTKSRKLSSPSKKSNKKSISKKSDRSKVSKVKRSPKTDKELEKKPSSIYERKDVDGHDDLKVPNMRSRKHSENSKNLFDYFFWFSLQTSKMKSLNYIEMLSNGDIKAPISAVFCPTRGSSTAPNCFAIIGVWRRRKKRSVSKLIKIGFSIPQSMEILTKKGQLFPNLITRQIPMEIRAVNFAHLHFSHRLVDFASGDDVLCDRIQHTIHVQS | not soluble |
| MSLTVHATPEPAAHQGVALGSSFYAAMRILPRPQREAMFQVYSFCRFVDDIADSDRPREQRVAELQQWRDDIAALYRGAPPPRLADYQESLRTFGLKREDFEAIIDGMEMDVDADIRAPDEATLDLYCDRVASAVGRLSVRIFGLPEADGIELSHHLGRALQLTNILRDIDEDAGIGRLYLPSELLHKVGITATDPRVVAADSALPSVCAPLVERALAHFAAADKVMNRNPRRVVKAPRIMGKYYYSILQLLIARGFAAPRAPVKLGKASKIAILLQYAIVEGHHHHHH | soluble |
| MGSDKIHHHHHHMQGKKFISPGAWFSMNYPSDWNEFEDGEGSFLFYNPDVWTGNFRISAFKGNASYGKDAIRQELKENDSASLVKIGTWDCAYSKEMFQEEGTYYTSHLWITGTGNIAFECSFTVPKGGSAKEAEEVIATLEARKEGEKYPAELIPVRLSEIYQINEGYEWVVSTVKQELKKDFQGVEEDLEKIQQVIDSGKISPKKKDEWLAIGITVCAILTNEVEGMEWKTLIDGNREVPVLEYQGRTIDPMKIAWSKVKAGQPCNIAEAYQSAIDHH | not soluble |
| MSLILKEGEVVFEVPDKLTVTKKDEVFYNPRMKTCRDISIAVIQAFLNLYHKRDKFYIADALAGSGIRGLRYAKELEFNGELKVFLNDINPKAYEKIINNAKLNEIENIDVFNEDANTFLSKHFRFFNVVDIDPFGSPAPYVEQAIRALVTRNGLLCLTATDTAALCGRSKKSCLRKYLAYPLFGRDCHEFALRVLVGYVMRMATKYELALKPVFCHATDHYVRVYLVTDRGAKRADKVFEMLGYVKDVNGIKIIKKFEEGYEKGFAGPLYIGNLYDKALVEEALKIAEKREFSERVLKILNAIKGESAINQVGCYDTHQIGKMLKISVPPMQDIINKLKEMGFNAVVTHYNPKGIKTDATLKNVIEAIYQCTKIREGHHHHHH | soluble |
| SRPVFAAKPDNEAIIDAQMKKPKVPVHAIATASHPMIRFIGHPEEQKNYDFFVPWLSKLPQWIAEGKQPYVMIHTADNIIAPELAANIYKNLQNHVALPDLAPFPANDGNSQLQMF | not soluble |
| MGSDKIHHHHHHMKILAFGEVLLRMTVPEHLMLTQTDELRMSTVGTGVNLLSSLTHFGYRTRLLSRLPDNALGQRAAGELRRYGIQDDYVTFGGQHMGAYFVELGYGSRPERVTYQDRLSSAFCQQPPDDQEIAAALVGCQFVHICGITLSLTAPVRQAALRLAQQAHANGQRVCFDFNYRQQLNTGVAHETLKARYQEILPYVDIVFGSKRDLTALLDYPDDEDRTQSANRESEAALYEQFVRDYHIDYFAGSYRYQIGQQKWFAGFSYQHQQLVVGKARPLMILDRIGSGDAFASGIITALIEGWSLQKTTDFAIATAILAQATVNDAPEFTKEMVLADMASDGQLELIR | not soluble |
| MLIPGAHYRGDVPMYPASVVKLFYLVACHEWLHSGMLQPDAELERAMRDMIVDSSNDATSLVVDMLTGTTSGPVLPPEPFRTWQYQRNIVNRYFQSLGWPELTQINVNQKTWCEGPYGREQEFVGRDRQNANRLTTNATAKLIHSIVGGVAVSASASQGMMELMERSLDPELLAQDPENQVQGFLGEGLPPGAKLWSKAGLTSWVRHDAAYIELPDRCPYTLVVFMENSTASKNTEVLPFISRQIASGILEHHHHHH | not soluble |
| MIRRRHSTTRIDRRPDGLTIYYKRANDDMEEEMLRVSVKPEGKNINDSLRSSKSSSSPPSRNSSLNLKTLKKDRKSKEGKPKSSSKHGKRMTSRAIHVSKKWSQFNRREDKTDYLDDETMQILEDLKILNCKIRKRFQIGTTCPHSLAKTDILSSSQSSKSQKSSTTTSSPVLTAVAYDYRGIPLTAPTVFPGARSEKTRETTRKAARAFARMEKEREDANNSSSRSRKTYQSRSPTGSEDSSPVIKLTRVSSGTRFPGASSPGTRERSRLMLKQCAMKKQLDEIARSLKSSKKSRKSMKSKKEKKSKPASLKTIYSKM | not soluble |
| MIRMSVLASGSTGNATYVESDKGSILVDAGLTGKKMEELFGQIDKQIQNLNGILVTHEHSDHIKGLGVLARKYKLPIYANEKTWTAIEKKDSKIPMDQKFIFNPYETKSLAGFDIESFNVSHDAIDPQFYIFHNNYKKFTILTDTGYVSDRMKGMIQGSDAFVFESNHDVDMLRMCGYPWKTKQRILSDMGHVSNEDAGRAMTDVITGSTKRIYLSHLSQDNLEHHHHHH | not soluble |
| MGSDKIHHHHHHMRRIRTLLSKKPSKLVFNLRKYAAFRQAWKSINVNRTSYSKTRRHYDAVVIGSDEVWNIQNPTFAMMPEYFGRGLNAKNIITYAPSSSKTTYADVAQNPLLAEGMRNIHHFSARDRNTFEIVEKIVNKPVTMVLDPTFLVEYDEEVEEAGVNSHGYVLVYTYQFDRLKIEKTRRFARSRGLRLISPCFYNDWCDEVVPCTPFGFLGLIRDAEYVVTDTFHGSIFSILYGKHFGSYASEKIKVAALLSALGLADRELGGVDDIGSVLDARIDYGRVRTCIEQERDVSLNYLRQALAPAG | not soluble |
| DHDFKYEVSANLSTVRNRVTSLGFGTDSYISGAYITNVGEEIGKFYGWVYDGIARTQADLDNHATQEGAQIGDCLYKDVSGPDGKPDGKVDANDQVVLGSGMPKINFGLNARFEYKRFDLSIATFGALNYHVSDDIHNSLNSCYGWGNKDVAMLDANRFSEDGSTYLSSVPRTYVTNSASLAWNDLFSDRKIQNAAYWKIANIELGYNFPNEWFGKYVSDVRFYVSAQNLHTFTGYKGYNVDYAGGTFTPGYNFCSYPTARTFMCGVHFTF | not soluble |
| GMTDWQQALDRHVGVGVRTTRDLIRLIQPEDWDKRPISGKRSVYEVAVHLAVLLEADLRIATGATADEMAQFYAVPVLPEQLVDRLDQSWQYYQDRLMADFSTETTYWGVTDSTTGWLLEAAVHLYHHRSQLLDYLNLLGYDIKLDLFE | soluble |
| VSIAQAQVVVSSKIDTEGGVLGNIILAVLNQNKIETTDRIQLGATPVVRKAITAGEIDIYPEYTGNAAFFFSKADDPLWKDAAKGYEEAKTLDYDANKIVWLAPSPANNTWAIALRKDVADKNNLKTLSDFGKYVAGGGTVVLAASSEFVNSAAALPAFQTTYGFTMKPDQLITLSGGDTAATIAAAANQTNNANAAMVYGTDGGIAPSGLVVLEDDKHVQPVYQPAPIIREEVLKKHPNIEELLKPVFEKLDLATLQDLNARVQVGGEQAKTVAMDFLTKNGFAK | soluble |
